We go through three molecules from publication PMC2918688 (Molecular immunology, 2010).

Sequences and labels used below:
T1: HA-NFATc2 (human, UniProt Q13469-2 1-921)
T1 sequence (looked up): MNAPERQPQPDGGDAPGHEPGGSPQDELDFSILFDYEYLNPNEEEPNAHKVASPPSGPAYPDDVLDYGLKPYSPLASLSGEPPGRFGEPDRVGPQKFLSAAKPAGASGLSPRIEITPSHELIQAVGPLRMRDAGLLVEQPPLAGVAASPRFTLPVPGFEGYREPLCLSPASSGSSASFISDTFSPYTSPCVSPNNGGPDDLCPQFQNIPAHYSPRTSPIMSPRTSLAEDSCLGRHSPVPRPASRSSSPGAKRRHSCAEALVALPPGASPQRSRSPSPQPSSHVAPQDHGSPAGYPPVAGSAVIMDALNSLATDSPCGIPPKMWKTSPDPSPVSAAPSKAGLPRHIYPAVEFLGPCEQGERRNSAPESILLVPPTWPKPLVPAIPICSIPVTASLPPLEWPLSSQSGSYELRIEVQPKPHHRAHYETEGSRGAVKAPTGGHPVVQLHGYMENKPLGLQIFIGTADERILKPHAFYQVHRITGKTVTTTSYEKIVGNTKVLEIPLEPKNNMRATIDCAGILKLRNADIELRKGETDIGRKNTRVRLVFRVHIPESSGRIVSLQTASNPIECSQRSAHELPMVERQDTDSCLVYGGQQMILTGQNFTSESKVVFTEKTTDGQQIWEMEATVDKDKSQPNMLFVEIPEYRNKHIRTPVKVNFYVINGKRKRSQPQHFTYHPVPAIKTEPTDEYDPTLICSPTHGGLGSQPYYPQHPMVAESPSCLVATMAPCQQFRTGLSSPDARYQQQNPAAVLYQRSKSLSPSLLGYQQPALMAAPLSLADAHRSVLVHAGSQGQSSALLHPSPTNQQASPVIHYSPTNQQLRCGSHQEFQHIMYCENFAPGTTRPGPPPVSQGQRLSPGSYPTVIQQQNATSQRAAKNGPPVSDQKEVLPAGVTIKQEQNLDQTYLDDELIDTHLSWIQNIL

T2: GST-NFATc2 (full-length) (human, UniProt Q13469-2 1-921)
T2 sequence (looked up): T1 sequence (looked up)

B1: GST-cJun(1–317) (domain or fragment, human, UniProt P05412 1-317, looked up)
chain: MTAKMETTFYDDALNASFLPSESGPYGYSNPKILKQSMTLNLADPVGSLKPHLRAKNSDLLTSPDVGLLKLASPELERLIIQSSNGHITTTPTPTQFLCPKNVTDEQEGFAEGFVRALAELHSQNTLPSVTSAAQPVNGAGMVAPAVASVAGGSGSGGFSASLHSEPPVYANLSNFNPGALSSGGGAPSYGAAGLAFPAQPQQQQQPPHHLPQQMPVQHPRLQALKEEPQTVPEMPGETPPLSPIDMESQERIKAERKRMRNRIAASKCRKRKLERIARLEEKVKTLKAQNSELASTANMLREQVAQLKQKVMNHVN
B2: purified cJun (natural protein, human, UniProt P05412 1-331, looked up)
chain: MTAKMETTFYDDALNASFLPSESGPYGYSNPKILKQSMTLNLADPVGSLKPHLRAKNSDLLTSPDVGLLKLASPELERLIIQSSNGHITTTPTPTQFLCPKNVTDEQEGFAEGFVRALAELHSQNTLPSVTSAAQPVNGAGMVAPAVASVAGGSGSGGFSASLHSEPPVYANLSNFNPGALSSGGGAPSYGAAGLAFPAQPQQQQQPPHHLPQQMPVQHPRLQALKEEPQTVPEMPGETPPLSPIDMESQERIKAERKRMRNRIAASKCRKRKLERIARLEEKVKTLKAQNSELASTANMLREQVAQLKQKVMNHVNSGCQLMLTQQLQTF
B3: GST-NFATc2(688–921) (domain or fragment, human, UniProt Q13469-2 688-921, looked up)
chain: EYDPTLICSPTHGGLGSQPYYPQHPMVAESPSCLVATMAPCQQFRTGLSSPDARYQQQNPAAVLYQRSKSLSPSLLGYQQPALMAAPLSLADAHRSVLVHAGSQGQSSALLHPSPTNQQASPVIHYSPTNQQLRCGSHQEFQHIMYCENFAPGTTRPGPPPVSQGQRLSPGSYPTVIQQQNATSQRAAKNGPPVSDQKEVLPAGVTIKQEQNLDQTYLDDELIDTHLSWIQNIL

Holding throughout (experiment): pull-down
One assay deals with T1, HA-NFATc2.
The next assay addresses T2, GST-NFATc2 (full-length).
The assay “purified cJun” has as its target B2.

As to B1, in the assay with HA-NFATc2, the binding result was “binds”.
Regarding B2, in the assay with GST-NFATc2 (full-length), the binding result is given as “binds”.
With B3, the binding result with purified cJun is given as “binds”.
